Drawing on paper PMC7801609, “Isolation of MERS-related coronavirus from lesser bamboo bats that uses DPP4 and infects human-DPP4-transgenic mice” (Nature Communications, 2021), this text covers Kd for four molecules.

What all share (assay): SPR; BIAcore X100, CM5 chip, 25 °C; […]; HBS-P+ buffer ([…]
In assay [1] the target is HKU4-RBD fused to a C-terminal His-tag (Tylonycteris-bat-CoV-HKU4) (UniProt A3EX94).
Assay [2] deals with MERS-RBD fused to a C-terminal His-tag (MERS-CoV) (UniProt K9N5Q8).
Assay [3] addresses peptidase domain of hDPP4 (residues 39-766) fused to a C-terminal His-tag (human, UniProt P27487 39-766). To be noted: both partners purified.

Sequence of peptidase domain of hDPP4 (residues 39-766) fused to a C-terminal His-tag (human, UniProt P27487 39-766) (P27487 39-766): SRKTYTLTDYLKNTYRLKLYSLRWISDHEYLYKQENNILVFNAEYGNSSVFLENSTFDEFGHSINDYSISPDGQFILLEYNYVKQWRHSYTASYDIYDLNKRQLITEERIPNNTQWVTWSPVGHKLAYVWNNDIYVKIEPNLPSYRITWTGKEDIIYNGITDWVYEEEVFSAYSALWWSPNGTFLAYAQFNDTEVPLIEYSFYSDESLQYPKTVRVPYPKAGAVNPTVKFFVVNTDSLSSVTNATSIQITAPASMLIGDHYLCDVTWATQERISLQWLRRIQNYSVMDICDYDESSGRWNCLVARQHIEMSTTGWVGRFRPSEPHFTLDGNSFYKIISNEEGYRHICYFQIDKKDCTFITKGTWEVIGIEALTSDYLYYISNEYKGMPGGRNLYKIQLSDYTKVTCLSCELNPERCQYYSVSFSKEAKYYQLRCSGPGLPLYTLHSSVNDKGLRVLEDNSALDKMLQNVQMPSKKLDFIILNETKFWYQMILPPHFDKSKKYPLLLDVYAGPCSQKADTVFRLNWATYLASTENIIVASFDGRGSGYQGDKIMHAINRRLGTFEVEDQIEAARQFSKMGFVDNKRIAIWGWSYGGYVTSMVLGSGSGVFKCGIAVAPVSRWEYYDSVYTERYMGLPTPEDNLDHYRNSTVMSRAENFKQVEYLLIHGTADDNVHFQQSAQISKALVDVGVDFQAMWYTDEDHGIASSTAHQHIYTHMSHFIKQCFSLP

On to “peptidase domain of TpDPP4 (residues 37-764) fused to a C-terminal His-tag (domain or fragment)”, for which the Kd in assay [1] came out at 2580 nM.
Consider “peptidase domain of dcDPP4 (residues 39-765) fused to a C-terminal His-tag (domain or fragment)”, for which the Kd in assay [2] is more than 18700 nM; in assay [1] it was more than 47700 nM.
“peptidase domain of hDPP4 (residues 39-766) fused to a C-terminal His-tag (from UniProt P27487 39-766) (domain or fragment)” showed a Kd in assay [1] of 1100 nM.

B1: MERS-RBD fused to a C-terminal His-tag (domain or fragment)
chain: EAKPSGSVVEQAEGVECDFSPLLSGTPPQVYNFKRLVFTNCNYNLTKLLSLFSVNDFTCSQISPAAIASNCYSSLILDYFSYPLSMKSDLSVSSAGPISQFNYKQSFSNPTCLILATVPHNLTTITKPLKYSYINKCSRFLSDDRTEVPQLVNANQYSPCVSIVPSTVWEDGDYYRKQLSPLEGGGWLVASGSTVAMTEQLQMGFGITVQYGTDTNSVCPKLEFANDTKIASQLGNCVEY
On to B1, for which, in assay [3], binding was put at a Kd of 632 nM.
